Test results taken from paper PMC3904167, “Replication interference between human papillomavirus types 16 and 18 mediated by heterologous E1 helicases” (Virology Journal, 2014).

Target: T1, Purified FLAG-tagged HPV18 E1 (human papillomavirus type 18, UniProt P06789 1-657)
T1 construct: E1 helicase of human papillomavirus type 18; also called F18E1; source: Sf9 cells, recombinant baculovirus (pFastBac1), purified; not shown: FLAG, N-terminal, kept
T1 sequence: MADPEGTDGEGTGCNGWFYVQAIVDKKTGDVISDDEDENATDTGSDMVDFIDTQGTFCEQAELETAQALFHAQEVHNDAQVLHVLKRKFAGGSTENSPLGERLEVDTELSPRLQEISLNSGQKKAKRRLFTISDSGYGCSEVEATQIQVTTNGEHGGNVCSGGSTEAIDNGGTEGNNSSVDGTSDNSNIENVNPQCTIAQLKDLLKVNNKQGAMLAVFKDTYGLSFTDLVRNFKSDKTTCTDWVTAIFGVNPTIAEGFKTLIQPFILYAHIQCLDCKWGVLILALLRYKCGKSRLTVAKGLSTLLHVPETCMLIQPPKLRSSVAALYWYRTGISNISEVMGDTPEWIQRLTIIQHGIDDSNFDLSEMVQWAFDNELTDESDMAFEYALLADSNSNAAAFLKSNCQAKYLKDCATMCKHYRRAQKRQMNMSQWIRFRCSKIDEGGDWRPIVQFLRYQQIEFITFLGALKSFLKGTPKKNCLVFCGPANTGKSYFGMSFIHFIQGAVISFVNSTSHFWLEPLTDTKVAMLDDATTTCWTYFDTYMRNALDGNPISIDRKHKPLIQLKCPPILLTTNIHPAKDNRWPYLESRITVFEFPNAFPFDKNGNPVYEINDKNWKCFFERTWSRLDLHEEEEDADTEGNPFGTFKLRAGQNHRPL
Test: co-IP; 1 ug purified H16E1 and 4 ug purified F18E1 in 200 ul binding buffer (20 mM Tris-HCl pH 8.0, 150 mM NaCl, 2 mM MgCl2, 0.01% NP-40); IP with anti-FLAG antibody and protein G magnetic beads, 1 h at 4°C; blot with anti-6xHis antibody
Details: both partners purified

B1: Purified 6xHis-tagged HPV16 E1 (enzyme)
chain: MADPAGTNGEEGTGCNGWFYVEAVVEKKTGDAISDDENENDSDTGEDLVDFIVNDNDYLTQAETETAHALFTAQEAKQHRDAVQVLKRKYLVSPLSDISGCVDNNISPRLKAICIEKQSRAAKRRLFESEDSGYGNTEVETQQMLQVEGRHETETPCSQYSGGSGGGCSQYSSGSGGEGVSERHTICQTPLTNILNVLKTSNAKAAMLAKFKELYGVSFSELVRPFKSNKSTCCDWCIAAFGLTPSIADSIKTLLQQYCLYLHIQSLACSWGMVVLLLVRYKCGKNRETIEKLLSKLLCVSPMCMMIEPPKLRSTAAALYWYKTGISNISEVYGDTPEWIQRQTVLQHSFNDCTFELSQMVQWAYDNDIVDDSEIAYKYAQLADTNSNASAFLKSNSQAKIVKDCATMCRHYKRAEKKQMSMSQWIKYRCDRVDDGGDWKQIVMFLRYQGVEFMSFLTALKRFLQGIPKKNCILLYGAANTGKSLFGMSLMKFLQGSVICFVNSKSHFWLQPLADAKIGMLDDATVPCWNYIDDNLRNALDGNLVSMDVKHRPLVQLKCPPLLITSNINAGTDSRWPYLHNRLVVFTFPNEFPFDENGNPVYELNDKNWKSFFSRTWSRLSLHEDEDKENDGDSLPTFKCVSGQNTNTL
notes: E1 helicase of human papillomavirus type 16; H16E1 gene cloned into pET-30; The pET-30 vector may add further vector-derived residues; also called H16E1; source: Escherichia coli BL21(DE3) pLysS (pET-30), purified
  binding result: binds
